# Values quoted from earlier work, collected in article PMC6359047.
# pKi: −log10 of the molar value.
# Biological target: MT1-MMP (Homo sapiens) (UniProt P50281)
# Chain of TIMP-1 (P01033 24-207): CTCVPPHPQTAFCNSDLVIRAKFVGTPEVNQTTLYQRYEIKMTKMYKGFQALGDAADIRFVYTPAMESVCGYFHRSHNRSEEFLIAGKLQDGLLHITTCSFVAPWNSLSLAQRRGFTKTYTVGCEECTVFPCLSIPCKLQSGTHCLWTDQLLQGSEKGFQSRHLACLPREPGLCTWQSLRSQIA
substance,measurement,value
TIMP-1 (from UniProt P01033),pKi,6.75
